Test results published in paper PMC3909270, “The basic keratin 10-binding domain of the virulence-associated pneumococcal serine-rich protein PsrP adopts a novel MSCRAMM fold” (Open Biology, 2014).

B1: Strep-Tag-II BR_(187–385) (KRT10-binding domain of the pneumococcal serine-rich repeat protein PsrP) [S. pneumoniae TIGR4] / KRT10 tail-rod-2B domain (KRT10-TRD) [human] (parent complex)
chain 1: FSGNTIVNGAPAINASLNIAKSETKVYTGEGVDSVYRVPIYYKLKVTNDGSKLTFTYTVTYVNPKTNDLGNISSMRPGYSIYNSGTSTQTMLTLGSDLGKPSGVKNYITDKNGRQVLSYNTSTMTTQGSGYTWGNGAQMNGFFAKKGYGLTSSWTVPITGTDTSFTFTPYAARTDRIGINYFNGGGKVVESSTTSQSLS
chain 2: LKQSLEASLAETEGRYCVQLSQIQAQISALEEQLQQIRAETECQNTEYQQLLDIKIRLENEIQTYRSLLEGEGSSGGGGRGGGSFGGGYGGGSSGGGSSGGGHGGGHGGSSGGGYGGGSSGGGSSGGGYGGGSSSGGHGGSSSGGYGGGSSGGGGGGYGGGSSGGGSSSGGGYGGGSSSGGHKSSSSGSVGESSS

Variants of: B1
Experiment: ELISA; KRT10-TRD coated in wells of ELISA plates; parent: 1; read off a plot

Variant	response [normalized absorbance]
chain 1 FSGNTIVNGAPAINASLNIAKSETKVYTGEGVDSVYRVPIYYKLKVTNDGSKLTFTYTVTYVNPKTNDLGNISSMRPGYSIYNSGTSTQTMLTLGSDLGKPSGVKNYITDKNGRQVLSYNTSTMTTQGSGYTWGAGAQMNGFFAKKGYGLTSSWTVPITGTDTSFTFTPYAARTDRIGINYFNGGGKVVESSTTSQSLS [chain 1 N135A]	~1.1
chain 1 FSGNTIVNGAPAINASLNIAKSETKVYTGEGVDSVYRVPIYYKLAVTNDGSKLTFTYTVTYVNPKTNDLGNISSMRPGYSIYNSGTSTQTMLTLGSDLGKPSGVKNYITDKNGRQVLSYNTSTMTTQGSGYTWGNGAQMNGFFAKKGYGLTSSWTVPITGTDTSFTFTPYAARTDRIGINYFNGGGKVVESSTTSQSLS [chain 1 K45A]	~0.97
